This note sets out measurements from publication doi:10.1101/2023.08.11.552966 (bioRxiv, 2023).

In general, Kd refers to the concentration at which binding is half-saturated. Low values mean higher affinity, high ones lower affinity.

One series has as its target RAD51 WT (Homo sapiens, UniProt Q06609 1-339). Description: BLI. (In general: BLI is a label-free optical method that tracks binding on a fibre tip over time.)
The series “cross-linking” deals with the molecule itself. Description: cross-linking.

As for GCCAUCCGCAAAAAUGACCUCUUAUCAAAAGGA (ssRNA) [33m RNA], the Kd with RAD51 WT stood at 530 nM.

B1: His-tagged RAD51 S97A (non phosphorylable mutant) (natural protein)
chain: MAMQMQLEANADTSVEEESFGPQPISRLEQCGINANDVKKLEEAGFHTVEAVAYAPKKELINIKGISEAKADKILAEAAKLVPMGFTTATEFHQRRAEIIQITTGSKELDKLLQGGIETGSITEMFGEFRTGKTQICHTLAVTCQLPIDRGGGEGKAMYIDTEGTFRPERLLAVAERYGLSGSDVLDNVAYARAFNTDHQTQLLYQASAMMVESRYALLIVDSATALYRTDYSGRGELSARQMHLARFLRMLLRLADEFGVAVVITNQVVAQVDGAAMFAADPKKPIGGNIIAHASTTRLYLRKGRGETRICKIYDSPCLPEAEAMFAINADGVGDAKD
Take B1: the binding result in “cross-linking” was “binds”.

B2: His-tagged RAD51 S97D (phosphomimetic mutant) (natural protein)
chain: MAMQMQLEANADTSVEEESFGPQPISRLEQCGINANDVKKLEEAGFHTVEAVAYAPKKELINIKGISEAKADKILAEAAKLVPMGFTTATEFHQRRDEIIQITTGSKELDKLLQGGIETGSITEMFGEFRTGKTQICHTLAVTCQLPIDRGGGEGKAMYIDTEGTFRPERLLAVAERYGLSGSDVLDNVAYARAFNTDHQTQLLYQASAMMVESRYALLIVDSATALYRTDYSGRGELSARQMHLARFLRMLLRLADEFGVAVVITNQVVAQVDGAAMFAADPKKPIGGNIIAHASTTRLYLRKGRGETRICKIYDSPCLPEAEAMFAINADGVGDAKD
In the case of B2, the binding result in “cross-linking” was “binds”.
Turning to TCCTTTTGATAAGAGGTCATTTTTGCGGATGGC (ssDNA) [33m DNA], binding with RAD51 WT was characterised by a dissociation constant (Kd) of 3840 nM.
